Literature values, collected in paper PMC3249237.

Target: LRP6 E1E2 (Homo sapiens) (UniProt O75581)
Sequence (O75581 20-630): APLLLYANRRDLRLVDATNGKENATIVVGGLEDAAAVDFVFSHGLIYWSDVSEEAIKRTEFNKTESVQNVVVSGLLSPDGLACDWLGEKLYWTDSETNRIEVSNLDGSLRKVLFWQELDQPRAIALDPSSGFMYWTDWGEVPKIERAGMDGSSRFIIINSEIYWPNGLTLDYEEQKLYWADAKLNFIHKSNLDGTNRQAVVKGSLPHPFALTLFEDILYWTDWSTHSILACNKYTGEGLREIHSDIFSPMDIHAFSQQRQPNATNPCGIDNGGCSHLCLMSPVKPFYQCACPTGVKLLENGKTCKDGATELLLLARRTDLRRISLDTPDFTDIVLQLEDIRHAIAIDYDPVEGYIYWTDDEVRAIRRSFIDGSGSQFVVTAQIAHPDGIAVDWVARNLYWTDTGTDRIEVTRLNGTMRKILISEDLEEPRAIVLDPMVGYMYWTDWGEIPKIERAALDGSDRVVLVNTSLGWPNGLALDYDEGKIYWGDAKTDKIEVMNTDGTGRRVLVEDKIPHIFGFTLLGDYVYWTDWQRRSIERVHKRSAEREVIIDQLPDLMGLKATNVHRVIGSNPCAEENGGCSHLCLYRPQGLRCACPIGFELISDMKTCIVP

Sequence of DKK1 (O94907 32-266): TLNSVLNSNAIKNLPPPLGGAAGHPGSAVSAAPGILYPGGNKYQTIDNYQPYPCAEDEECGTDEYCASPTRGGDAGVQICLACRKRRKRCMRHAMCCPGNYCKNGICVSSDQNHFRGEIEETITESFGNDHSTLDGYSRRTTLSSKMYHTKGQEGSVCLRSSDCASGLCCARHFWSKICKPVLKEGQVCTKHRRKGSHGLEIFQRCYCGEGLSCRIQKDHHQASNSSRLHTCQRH

## DKK1 (from UniProt O94907)
  Kd: 64 nM
